What all share (assay type): in vivo
In data set [1] the test system is Heliothis virescens larvae. The data set is described as follows: Paralysis (PU50) of lepidopterous larvae after toxin injection. As to conditions: single toxin injected; inability to move or turn when inverted, 24 hours after injection. Here is the method:
(§1) The activities of four different insect toxins towards two different insects and towards mice were determined (since one prefers to use insect toxins that have little or no effect on mammals). These were purified by established methods from the respective crude venoms. Their toxicity towards mice and larvae of blow fly and lepidoptera was determined according to the method of Reed and Muench (1938).
(§2) The PU50 values of the toxins to blow fly larvae were in accordance with previously published results (Zlotkin et al., Biochim, 53, 1075-1078 (1971); and Eitan et al., Biochem., 29, 5941-5947 (1990)). […]
each one of the toxins and the PU50 was determined as inability to
or turn when inverted on its back 24 hours after injection. […]

The subject of data set [2] is Sarcophaga falculata larvae. Description: Paralysis (PU50) of blow fly larvae after toxin injection. The settings on record: single toxin injected; contraction paralysis immediately, or flaccid/delayed paralysis 5 minutes after injection. As to the method: as §1, §2
one of the toxins and the PU50 were determined. The PU50 of
excitatory toxins AaIT, LqhVI, and LqhIT3 was determined as a
contraction paralysis immediately after injection. The PU50 of the
depressant toxin LqhIT2 was determined as a flaccid paralysis 5
after injection. The PU50 of the α insect toxins LqhαIT

The subject of another data set is Swiss Webster mice. Description: LD50 to mice, subcutaneous injection. The settings on record: for toxicity towards mice / mammals (in words): Swiss Webster mice; for LD50 to Swiss Webster mice: single toxin, subcutaneous, 24 hours after injection. Here is the method: as §1
The PU50 values of the toxins to blow fly larvae were in accordance with previously published results (Zlotkin et al., Biochim, 53, 1075-1078 (1971); and Eitan et al., Biochem., 29, 5941-5947 (1990)).
(§3) ^c Two replicates of eight mice were injected subcutaneously and the
to mice was determined 24 hours after injection.
as §3
LD50 to mice was determined 24 hours after injection.

On to “LqhαIT: α insect toxin from yellow scorpion Leuirus quinquestriatus hebraeus”, for which, in data set [1], the “PU50 to Heliothis virescens larvae” value was found to be 2.5 μg/100 mg b.w. In addition, the “PU50 to Sarcophaga falculata larvae” value in data set [2] worked out at 0.0025 μg/100 mg b.w. For the same molecule, in the data set on Swiss Webster mice, the “toxicity towards mice / mammals (in words)” value was “higher toxicity” and the “LD50 to Swiss Webster mice” value was determined as 8.0 μg/20 g b.w.

B1: LqhIV (protein)
peptide: GVRDAYIADDKNCVYTCGANSYCNTECTKNGAESGYCQWFGKYGNACWCIKLPDKVPIRIPGKCR
For B1, in data set [1], the “PU50 to Heliothis virescens larvae” value is given as 0.5 μg/100 mg b.w. In addition, the “PU50 to Sarcophaga falculata larvae” value in data set [2] is recorded as 0.1 μg/100 mg b.w. In the data set with Swiss Webster mice, the “toxicity towards mice / mammals (in words)” value is “no or weak mammal toxicity” and the “LD50 to Swiss Webster mice” value is listed as 12 μg/20 g b.w.

B2: LqhVI (protein)
chain: GVRDGYIAQPENCVYHCFPGSPGCDTLCKGDGASSGHCGFKEGHGLACWCNDLPDKVGIIVEGEKCH
As for B2, the “PU50 to Heliothis virescens larvae” value in data set [1] amounted to 3.0 μg/100 mg b.w. In data set [2], the “PU50 to Sarcophaga falculata larvae” value is listed as 0.006 μg/100 mg b.w. Further, in the data set with Swiss Webster mice, the “toxicity towards mice / mammals (in words)” value is given as “weak mammal toxicity” and the “LD50 to Swiss Webster mice” value is recorded as greater than 60 μg/20 g b.w.

B3: AaIT: excitatory insect-selective scorpion toxin from Androctonus australis (protein, UniProt P01497 19-88, looked up)
Beta-insect excitatory toxin 1: KKNGYAVDSSGKAPECLLSNYCNNECTKVHYADKGYCCLLSCYCFGLNDDKKVLEISDTRKSYCDTTIIN
For the molecule B3, in data set [1], the “PU50 to Heliothis virescens larvae” value is given as 2.5 μg/100 mg b.w. Also, in data set [2], the “PU50 to Sarcophaga falculata larvae” value came to 0.0025 μg/100 mg b.w. Also, the “LD50 to Swiss Webster mice” value in the data set on Swiss Webster mice was greater than 60 μg/20 g b.w.

(Values after patent publication US5756340A, “Insect control with multiple toxins” (The Regents of the University of California, priority 1995, dated 1998).)
